Data taken from patent US12129308 (Merck KGaA, dated 2024).
Residue numbers refer to the chain shown, from its start.

B1: C0101PMP059F06 (VHH)
VHH: EVQLVESEGGTVEPGESLRLACAAPGPGIRTNFMAWYRQAPEKEREMVASISRDGSTHYADSVKGRFTISSDNATSTFYLQMNSLQVEDTAVYYCATDPHILHNDRAGAFLVEDYDHWGQGTQVTVSS
notes: Profile 2 Nanobody
B2: C0101PMP525C04 (VHH)
VHH: DVQLVESGGGLVQPGGSLRLSCAGSGSIFSGNAMGWYRQAPGKQRELVAAITSGGVTNYADSVKGRFTISRDNSKNTVYLQMNSLRPEDTAVYYCAADIRYPTGLVGDYWGQGTLVTVSS
notes: Profile 2 Nanobody
B3: C0101PMP520C04 (VHH)
VHH: DVQLVESGGGLVQPGGSLRLSCAASGRTFSSYAMGWFRQAPGKEREFVAAISWSGGSTYYSDSVKGRFTISRDNSKNTVYLQMNSLRPEDTAVYYCTAARGGVAGTDGPLGDYNYWGQGTLVTVSS
notes: Profile 2 Nanobody
B4: C0101PMP513C04 (VHH)
VHH: DVQLVESGGGLVQPGGSLRLSCAASGRTFSRYVMGWFRQAPGKEREFVAAINWSSGSTYYADSVKGRFTISRDNSKNTVYLQMNSLRPEDTAVYYCAADRRVYYDTYPNLRGYDYWGQGTLVTVSS
B5: C0101PMP080A01 (VHH)
VHH: EVQLVESGGGLVQPGGSLRLSCAASGFTLAYYSIGWFRQAPGKEREGVSCISSGIDGSTYYADSVKGRFTISRDNAKNTMYLQMNNLKPEDTGVYYCAADPSHYYSEYDCGYYGMDYWGKGTLVTVSS
B6: C010100687 (bispecific antibody)
chain: EVQLVESGGGLVQPGGSLRLSCAASGFTLAYYSIGWFRQAPGKEREGVSCISSGIDGSTYYADSVKGRFTISRDNAKNTMYLQMNNLKPEDTGVYYCAADPSHYYSEYDCGYYGMDYWGKGTLVTVSSGGGGSGGGGSGGGGSGGGGSGGGGSGGGGSGGGGSEVQLVESGGGLVQPGGSLRLSCAASGSTFIINVVRWYRRAPGKQRELVATISSGGNANYVDSVRGRFTISRDNSKNTVYLQMNSLRPEDTAVYYCNVPTTHYGGVYYGPYWGQGTLVTVSS
B7: C010100692 (bispecific antibody)
chain: EVQLVESGGGLVQPGGSLRLSCAASGFAFSAAYMSWVRQAPGKGLEWVSSISDDGSKTYYADSVKGRFTISRDNSKNTVYLQMNSLRPEDTAVYYCNTGYGATTTRPGRYWGQGTLVTVSSGGGGSGGGGSGGGGSGGGGSGGGGSGGGGSGGGGSEVQLVESGGGLVQPGGSLRLSCAASGRTFSSYTMGWFRQAPGKEREFVAAISWSGGRTYYADSVKGRFTISRDNSKNTVYLQMNSLRPEDTAVYYCAAYRRRRASSNRGLWDYWGQGTLVTVSS
B8: C010100696 (bispecific antibody)
chain: EVQLVESGGGLVQPGGSLRLSCAASGRTFSSYAMGWFRQAPGKEREFVAAISWSGGSTYYADSVKGRFTISRDNSKNTVYLQMNSLRPEDTAVYYCTAALAVYGPSRYRYGPVGEYQYWGQGTLVTVSSGGGGSGGGGSGGGGSGGGGSGGGGSGGGGSGGGGSEVQLVESGGGSVQPGGSLRLSCAASGSTFSRYSMNWYRQAPGKQREFVAGISVGRITNYAVSVRGRFTISRDNSEGTGYLQMNSLRPEDTAVYYCNAGGLQGYWGLGTLVTVSSGGGGSGGGGSGGGGSGGGGSGGGGSGGGGSGGGGSEVQLVESGGGLVQPGGSLRLSCAASGRTFSSYTMGWFRQAPGKEREFVAAISWSGGRTYYADSVKGRFTISRDNSKNTVYLQMNSLRPEDTAVYYCAAYRRRRASSNRGLWDYWGQGTLVTVSS
B9: C010100689 (bispecific antibody)
chain: EVQLVESGGGLVQPGGSLRLSCAASGFAFSAAYMSWVRQAPGKGLEWVSSISDDGSKTYYADSVKGRFTISRDNSKNTVYLQMNSLRPEDTAVYYCNTGYGATTTRPGRYWGQGTLVTVSSGGGGSGGGGSGGGGSGGGGSGGGGSGGGGSGGGGSEVQLVESGGGLVQPGGSLRLSCAASGSTFIINVVRWYRRAPGKQRELVATISSGGNANYVDSVRGRFTISRDNSKNTVYLQMNSLRPEDTAVYYCNVPTTHYGGVYYGPYWGQGTLVTVSS
B10: C010100688 (bispecific antibody)
chain: EVQLVESGGGLVQPGGSLRLSCAASGSIFSINAMGWYRQAPGKQRELVAAISSGGSTYYADSVKGRFTISRDNSKNTVYLQMNSLRPEDTAVYYCNAAVDASRGLPYELYYYWGQGTLVTVSSGGGGSGGGGSGGGGSGGGGSGGGGSGGGGSGGGGSEVQLVESGGGLVQPGGSLRLSCAASGSTFIINVVRWYRRAPGKQRELVATISSGGNANYVDSVRGRFTISRDNSKNTVYLQMNSLRPEDTAVYYCNVPTTHYGGVYYGPYWGQGTLVTVSS
B11: C010100280 (VHH)
VHH: EVQLVESGGGLVQPGGSLRLSCAASGFAFSAAYMSWVRQAPGKGLEWVSSISDDGSKTYYADSVKGRFTISRDNSKNTVYLQMNSLRPEDTAVYYCNTGYGATTTRPGRYWGQGTLVTVSS
B12: C010100170 (VHH)
VHH: EVQLVESGGGLVQPGGSLRLSCAASGSIFSINAMGWYRQAPGKQRELVAAISSGGSTYYADSVKGRFTISRDNSKNTVYLQMNSLRPEDTAVYYCNAAVDASRGLPYELYYYWGQGTLVTVSS
B13: C010100101 (VHH)
VHH: B5 VHH
B14: C010100691 (bispecific antibody)
chain: EVQLVESGGGLVQPGGSLRLSCAASGSIFSINAMGWYRQAPGKQRELVAAISSGGSTYYADSVKGRFTISRDNSKNTVYLQMNSLRPEDTAVYYCNAAVDASRGLPYELYYYWGQGTLVTVSSGGGGSGGGGSGGGGSGGGGSGGGGSGGGGSGGGGSEVQLVESGGGLVQPGGSLRLSCAASGRTFSSYTMGWFRQAPGKEREFVAAISWSGGRTYYADSVKGRFTISRDNSKNTVYLQMNSLRPEDTAVYYCAAYRRRRASSNRGLWDYWGQGTLVTVSS
B15: C010100726 (bispecific antibody)
chain: EVQLVESGGGLVQPGGSLRLSCAASGRTFSSYAMGWFRQAPGKEREFVAAISWSGGSTYYADSVKGRFTISRDNSKNTVYLQMNSLRPEDTAVYYCTAALAVYGPSRYRYGPVGEYQYWGQGTLVTVSSGGGGSGGGGSGGGGSGGGGSGGGGSGGGGSGGGGSEVQLVESGGGLVQPGGSLRLSCAASGSTFSRYSMNWYRQAPGKQREFVAGISVGRITNYAVSVKGRFTISRDNSKNTVYLQMNSLRPEDTAVYYCNAGGLQGYWGQGTLVTVSS
B16: C010100727 (bispecific antibody)
chain: B15 chain with V242G
B17: C010100080 (bispecific antibody)
chain: EVQLVESGGGLVQPGGSLRLSCAASGRTFSSYAMGWFRQAPGKEREFVAAISWSGGSTYYADSVKGRFTISRDNSKNTVYLQMNSLRPEDTAVYYCTAALAVYGPNRYRYGPVGEYNYWGQGTLVTVSSGGGGSGGGGSGGGGSGGGGSGGGGSGGGGSGGGGSEVQLVESGGGSVQAGGSLRLSCAASGSTFSRYSMNWYRQAPGKQREFVAGISVGRITNYAVSVRGRFTISRDNAEGTGYLQMNSLKPEDTAVYYCNAGGLQGYWGLGTLVTVSSGAADYKDHDGDYKDHDIDYKDDDDKGAAHHHHHH
B18: C010100700 (bispecific antibody)
chain: EVQLVESGGGLVQPGGSLRLSCAASGRTFSSYAMGWFRQAPGKEREFVAAISWSGGSTYYADSVKGRFTISRDNSKNTVYLQMNSLRPEDTAVYYCTAALAVYGPSRYRYGPVGEYQYWGQGTLVTVSSGGGGSGGGGSGGGGSGGGGSGGGGSGGGGSGGGGSEVQLVESGGGSVQPGGSLRLSCAASGSTFSRYSMNWYRQAPGKQREFVAGISVGRITNYAVSVRGRFTISRDNSEGTGYLQMNSLRPEDTAVYYCNAGGLQGYWGLGTLVTVSSGGGGSGGGGSGGGGSGGGGSGGGGSGGGGSGGGGSEVQLVESGGGLVQPGGSLRLSCAASGSTFIINVVRWYRRAPGKQRELVATISSGGNANYVDSVRGRFTISRDNSKNTVYLQMNSLRPEDTAVYYCNVPTTHYGGVYYGPYWGQGTLVTVSS

The binders below were run against T1, activated MMP13 (species not stated) (Homo sapiens (Human), UniProt P45452 104-471, Biotinylated in the TIMP-2 competition ELISA (sites not given). Activated form: pro-peptide removed.) (assay: TIMP-2 competition ELISA; Nanobody pre-incubated with 1.26 nM activated MMP13-biotin, binding to captured TIMP-2).
T1 construct: campaign 4 ELISA; Probably human

Row | IC50 [nM] | Binder
1 | 51.8 | B1
2 | 36.2 | B2
3 | 8 | B3

Each binder was assayed against bovine MMP13 (bovine, UniProt O77656 104-471) (assay: cell-based or functional assay).

Row | IC50, bovine fluorogenic peptide assay [nM] | Binder
4 | 108 | B1
5 | 108 | B2
6 | 48.7 | B4
7 | 6.4 | B5
8 | 27.9 | B3

Each binder was assayed against T2, activated human MMP13 (human, UniProt P45452 104-471) (assay: cell-based or functional assay).

Row | IC50, human fluorogenic collagen assay [nM] | IC50, human fluorogenic peptide assay [nM] | Binder
9 | 140 | 56.3 | B1
10 | 90.5 | 58 | B2
11 | 18.1 | 7.7 | B4
12 | 10.8 | 5.2 | B5
13 | 31.5 | 13.7 | B3

Each binder was assayed against activated rat MMP13 (rat, UniProt P23097 99-466) (assay: cell-based or functional assay).

Row | IC50, rat fluorogenic peptide assay [nM] | Binder
14 | 38.9 | B1
15 | 157 | B2
16 | 16.2 | B4
17 | 4.2 | B5
18 | 5.6 | B3

What follows are binders tested against activated dog MMP13 (dog, UniProt P45452 104-471 (human entry)) (assay: cell-based or functional assay).

Row | IC50, dog fluorogenic peptide assay [nM] | Binder
19 | 82.6 | B1
20 | 90.8 | B2
21 | 35.2 | B4
22 | 6 | B5
23 | 10.5 | B3

The binders below were run against cynomolgus MMP13 (cynomolgus, UniProt A0A2K5U988 104-471) (assay: cell-based or functional assay).

Row | IC50, cyno fluorogenic peptide assay [nM] | Binder
24 | 48.5 | B1
25 | 32.5 | B2
26 | 8 | B4
27 | 2.9 | B5
28 | 32.5 | B3

Target: T2, activated human MMP13
Test: cell-based or functional assay
Remark: another data set of the same source

Row | potency, human fluorogenic peptide assay [nM] | Binder
29 | 1.57 | B6
30 | 0.828 | B7
31 | 0.107 | B8
32 | 1.91 | B9
33 | 0.927 | B10
34 | 1.01 | B11
35 | 0.608 | B12
36 | 3.92 | B13
37 | 0.484 | B14
38 | 0.0671 | B15
39 | 0.134 | B16
40 | 0.488 | B17
41 | 0.0318 | B18
